# Laboratory results taken from US20220305135A1 (UNIVERSITY OF CHICAGO, published 2022).
# B1: Human anti-EDA Fab (Fab, V domains shown)
# VH: EVQLLESGGGLVQPGGSLRLSCAASGFTFSVMKMSWVRQAPGKGLEWVSAISGSGGSTYYADSVKGRFTISRDNSKNTLYLQMNSLRAEDTAVYYCAKSTHLYLFDYWGQGTLVTVSS
# VL: EIVLTQSPGTLSLSPGERATLSCRASQSVSNAFLAWYQQKPGQAPRLLIYGASSRATGIPDRFSGSGSGTDFTLTISRLEPEDFAVYYCQQMRGRPPTFGQGTKVEIKR
# notes: Made recombinantly in HEK-293F cells
# How the values were obtained:
# [1] = target: T1, extra domain A (EDA) of fibronectin; test: ELISA, EDA coated on plate, Fab titrated, anti-human IgG-HRP detection; apparent Kd by one-site nonlinear regression
# T1 chain: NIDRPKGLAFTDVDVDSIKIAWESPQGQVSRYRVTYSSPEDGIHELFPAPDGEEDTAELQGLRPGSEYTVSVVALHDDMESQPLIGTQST
# [2] = target: T1, extra domain A (EDA) of fibronectin; test: ELISA on plates coated with 10 µg/mL EDA, detection with HRP anti-human IgG, absorbance at 450 nm [panel C]
binder,measurement,setting,value
B1,Kd,[1],50.9 nM
same,EC50 (read off the curve),[2],~80 nM
